Experimental data from US20060251733A1.

Molecular target: FcγR (receptor for the Fc portion of immunoglobulin molecule) on bone marrow derived macrophages (mouse)
Assay: cell-based or functional assay

IL-10 production by BMMφ (ELISA of supernatants), LPS + E-IgG: 10 ng/mL
IL-10 production by BMMφ (ELISA of supernatants), LPS + E-IgG against LPS alone: > 5 fold
Substance: IgG-opsonized erythrocytes (E-IgG): sheep erythrocytes (SRBC) opsonized with rabbit IgG antibody to SRBC
